Results published in patent publication US10512669.
“And” between values parts separate entries of the source, which are not always exact repeats. Equal values may be shown once.

Biological target: TACE expressed on resting and LPS-stimulated THP-1 cells, P78536
Assay: cell-based or functional assay

Sequence of TACE expressed on resting and LPS-stimulated THP-1 cells, P78536 (P78536 215-824 limits assumed): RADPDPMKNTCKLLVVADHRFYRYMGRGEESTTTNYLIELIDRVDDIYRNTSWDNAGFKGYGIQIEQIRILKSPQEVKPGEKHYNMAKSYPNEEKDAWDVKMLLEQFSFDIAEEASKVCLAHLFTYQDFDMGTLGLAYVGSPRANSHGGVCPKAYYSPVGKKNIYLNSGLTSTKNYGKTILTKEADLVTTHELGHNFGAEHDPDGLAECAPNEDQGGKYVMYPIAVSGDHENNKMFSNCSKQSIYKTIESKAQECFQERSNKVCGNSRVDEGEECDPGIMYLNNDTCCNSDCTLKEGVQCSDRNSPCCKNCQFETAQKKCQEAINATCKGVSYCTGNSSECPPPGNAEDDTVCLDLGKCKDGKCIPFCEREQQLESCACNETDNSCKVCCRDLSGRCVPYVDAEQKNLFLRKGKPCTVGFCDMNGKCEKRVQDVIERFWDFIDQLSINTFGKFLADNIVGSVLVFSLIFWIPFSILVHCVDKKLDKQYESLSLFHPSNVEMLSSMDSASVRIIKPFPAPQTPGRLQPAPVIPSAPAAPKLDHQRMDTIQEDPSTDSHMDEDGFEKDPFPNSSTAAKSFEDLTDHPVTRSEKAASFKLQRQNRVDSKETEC

Binder: GFCRCLCRRGVCRCICTR (modifications not checked) [Rhesus θ-defensin-1 (RTD-1)]
- IC50, inhibition of TACE in cell-based assay on THP-1 cells: 15 µg/ml and 7.4 µM
